Results: patent US20240239894A1, “THERAPEUTIC BINDING MOLECULES” (MedImmune Limited, priority 2020, published 2024)

Legend:
[1] = system: HT29 cell line expressing human B7-H4, SKBR3, HCC1569; assay: Cytotoxicity assay versus 1D11 ADC; assay type: cell-based; settings: six days
Protocol: Cell lines were detached from tissue culture flasks by accutase (Gibco, Paisley, UK), pelleted by centrifugation, and resuspended in growth media (McCoy's 5A,10% FBS, 400 μg/mL G418 for HT29-hB7H4 clone 44, McCoy's 5A, 10% FBS for SKBR3 and RPMI-1640, 10% FBS for HCC1569). Viable cells were counted by trypan blue exclusion using a haemocytometer. Cell densities were adjusted to 2.7×10^4 cells/mL in growth media. 75 μL/well of the cell suspension (2×10^3 cells) was added to 96-well white walled clear bottom tissue culture treated plates and cultured overnight in a humidified tissue culture incubator at 37° C. in 5% CO2. […]
Cells were cultured in the presence of ADCs or DPBS (mock-treated control cells) for six days. Cell viability was assessed using CellTiter-Glo® assay: 100 μL of CellTiter-Glo® (Promega, Southampton, UK) was added to each well. […] Luminescence was measured using an Envision multilabel plate reader (Perkin Elmer, Seer Green, UK). The potency for test article antibodies (e.g. 1D11-MMAE or E02-GL-MMAE or E02-GL-SG3249) was determined by generating half-maximal inhibitory concentration (IC50) values using a nonlinear regression model [log agonist vs. response—variable slope (three parameters)] in GraphPad Prism, version 7 (GraphPad Software, La Jolla, CA) and presented as percent cell viability relative to Mock-treated control cells — […]

[2] = system: live cells (B7-H4 on membrane); assay: Internalisation kinetics in live cells (AF647 label); assay type: cell-based; settings: AF647 conjugate; co-visualisation with Lamp1-AF488
Protocol: E02-GL conjugated to fluorescence marker AF647 was used to treat live cells. At 0 mins following treatment, clusters of fluorescence were noted on the cell membranes (indicative of binding to B7-H4 present on the membrane).

[3] = system: SKBR3 cell line (target cell); assay: ADCC with primary human NK cells; assay type: cell-based; settings: 1 μg/mL; NK cells from healthy donors
Excerpt: When IgG antibodies bind cell surface antigens via their Fab domains, the Fc portion of the antibodies can engage with FcγRIIIa on natural killer cells. The interaction of the Fc domain with FcγRIIIa induces cross-linking of the FcγRs, which triggers the release of cytotoxic granules containing perforin and granzymes, leading to the death of the target cell, a process called antibody-dependent cellular cytotoxicity (ADCC). The potential of antibody E02-INT and E02-GL-SG3932 to initiate ADCC activity was evaluated utilizing isolated primary human NK cells and the human breast cancer SKBR3 cell line as the target cell.
Next, human breast cancer SK-BR-3 cells were co-cultured with NK cells isolated from six healthy donors in the presence of 1 μg/mL E02-GL-SG3932, antibody intermediate E02-INT, isotype-matched control antibody NIP228, and the isotype-matched control ADC NIP228-SG3932 (FIG. 37). ADCC activity was evaluated by Incycte® Annexin V Dye binding of extracellular surface exposure of phosphatidyl serine on apoptotic cells, yielding a bright and stable red fluorescent signal. The fold-change was based on maximum cell death of non-drug treated NK/SK-BR-3 co-cultured cells. Maximum cell death was calculated by dividing the average red objects in experimental wells by the average maximum cell death in Staurosporine treated SK-BR-3 cells.

[4] = system: HT29-huB7-H4 Clone 4 and HT29-huB7-H4 Clone 26; assay: Flow cytometry binding; assay type: cell-based, human
Excerpt: (§1) Flow cytometry was used to measure binding of antibody E02-INT and E02-GL-SG3932 to the human breast cancer cell lines MX-1 and MDA-MB-468, and to engineered HT29 colon cancer cells stably expressing human B7-H4.

[5] = system: MDA-MB-468 cells; assay: Flow cytometry binding; assay type: cell-based, human; settings: endogenously-expressed B7-H4
Excerpt: as §1

[6] = system: MX-1 cells; assay: Flow cytometry binding; assay type: cell-based, human; settings: endogenously-expressed B7-H4
Excerpt: as §1

[7] = system: B7-H4-negative non-transduced HT29; assay: Flow cytometry binding; assay type: cell-based, human
[8] = system: MDA-MB-468; assay: E02-GL MESF on cell line; assay type: cell-based, human
Protocol: A number of cancer cell lines were treated with clone E02-GL-SG3249 (e.g. conjugated to a cytotoxin), as outlined in Table 15.

[9] = system: B7-H4 expressing versus WT HT29, CT26 and 4T1 tumours; assay: In vivo imaging of 800CW labelled antibody; parameters: species or system mice; settings: 800CW label; HT29 days 3, 7, 14; CT26 days 3 and 7; 4T1 day 7
Excerpt: Antibody clones (e.g. E02_GL) were labelled with 800CW (LI-COR Biosciences). 800 CW labelled R347 was used in control experiments.
B7-H4 expressing CT26/4TI/HT29 cancer cells were grafted (e.g. inoculated subcutaneously) to the left flank […] nude mice (Charles River Laboratories, Wilmington, MA), and non-B7-H4 expressing CT26/4TI/HT29 cancer cells were grafted to the right flank to provide an internal control. Mice were kept for a week to develop tumours, 800CW-labelled E02_GL was injected. 800CW-labelled R347 was injected into control mice. […]
In vivo imaging studies were performed as outlined under Materials and Methods (above), namely with 800CW labelled antibody (E02_GL). “E02-GL” antibody has the CDR/VH sequences (e.g. corresponds to) of ZY0EQD-E02 (“GL” means the antibody has been germlined).

Molecule	cytotoxicity potency compared with 1D11 conjugated to (A114C-) MMAE [1]	internalisation of bound antibody [2]	ADCC activity beyond untreated co-cultured cells [3]	cellular binding [4]	cellular binding [5]	cellular binding [6]	cellular binding [7]	E02-GL MESF [8]	localization to the B7-H4 expressing tumour compared to the WT tumour [9]
E02-GL-SG3249: clone E02-GL (Maia heavy chain backbone) conjugated to the PBD cytotoxin SG3249 (conjugate) heavy: QVQLQQWGAGLLKPSETLSLACTVYGGSFSGYYWNWIRQPPGKGLEWIGEINHSGSTSYNPSLKSRVTISVDTSKNQFSLKLSSVTAADTAVYYCARVLYNWNVDSWGQGTLVTVSSASTKGPSVFPLAPSSKSTSGGTAALGCLVKDYFPEPVTVSWNSGALTSGVHTFPAVLQSSGLYSLSSVVTVPSSSLGTQTYICNVNHKPSNTKVDKRVEPKSCDKTHTCPPCPAPELLGGPSCVFLFPPKPKDTLMISRTPEVTCVVVDVSHEDPEVKFNWYVDGVEVHNAKTKPREEQYNSTYRVVSVLTVLHQDWLNGKEYKCKVSNKALPAPIEKTISKAKGQPREPQVYTLPPSREEMTKNQVSLTCLVKGFYPSDIAVEWESNGQPENNYKTTPPVLDSDGSFFLYSKLTVDKSRWQQGNVFSCSVMHEALHNHYTQKSLSLSPGK light: DIQMTQSPSSLSASVGDRVTITCRASQDIRNDVGWYQQKPGKAPKRLIYAASRLQSGVPSRFSGSGSGTEFTLTISSLQPEDFATYYCLQHNSYPRTFGQGTKVEIKRTVAAPSVFIFPPSDEQLKSGTASVVCLLNNFYPREAKVQWKVDNALQSGNSQESVTEQDSKDSTYSLSSTLTLSKADYEKHKVYACEVTHQGLSSPVTKSFNRGEC	superior cytotoxicity potency								
E02-GL: germlined ZY0EQD-E02, VH SEQ ID NO: 45, VL SEQ ID NO: 34; antibody intermediate of E02-GL-SG3932 (antibody, V domains shown) VH: QVQLQQWGAGLLKPSETLSLACTVYGGSFSGYYWNWIRQPPGKGLEWIGEINHSGSTSYNPSLKSRVTISVDTSKNQFSLKLSSVTAADTAVYYCARVLYNWNVDSWGQGTLVTVSS VL: DIQMTQSPSSLSASVGDRVTITCRASQDIRNDVGWYQQKPGKAPKRLIYAASRLQSGVPSRFSGSGSGTEFTLTISSLQPEDFATYYCLQHNSYPRTFGQGTKVEIK		internalised by endocytosis	significant increase in ADCC activity	bound similarly	bound	bound	did not bind	92,157 MESF	Preferential localization
